Reference: paper PMC6152618, “Antimicrobial Activity of Truncated and Polyvalent Peptides Derived from the FKCRRWQWRMKKGLA Sequence against Escherichia coli ATCC 25922 and Staphylococcus aureus ATCC 25923” (Molecules : A Journal of Synthetic Chemistry and Natural …, 2017)

Key:
[1] = test system: Escherichia coli ATCC 25922; format: cell-based; settings: n = 2
Protocol: (§1) The MIC was determined using a microdilution assay. In brief, bacterial strains were incubated for 18 to 24 h at 37 °C in an Müller-Hinton (MH) broth until an optical density of 0.15 to 0.30 (620 nm) was obtained. Next, 90 μL of Mueller-Hinton broth (MHB) was mixed with […], and serial dilutions (200, 100, 50, 25, 12.5 and 6.2) were prepared in 96-well microplates (final volume 100 μL/well). Then, 10 μL of inoculum (2 × 10^6 CFU/mL) was added to each well. The final volume in each well was 100 μL. Then they were incubated for 24 h at 37 °C; the absorbance at 620 nm was measured using an Asys Expert Plus ELISA reader. For determining the MBC, a small sample was taken from each well using an inoculation loop, and then was spread on MH agar plates and incubated overnight at 37 °C. MBC was considered on the plate which presented no bacterial growth. Each of these tests was performed twice (n = 2).

[2] = test system: Staphylococcus aureus ATCC 25923; format: cell-based; settings: n = 2
Protocol: as §1

[3] = microdilution, Mueller-Hinton broth, 24 h at 37 °C, absorbance 620 nm
[4] = sample of each well spread on MH agar, overnight 37 °C, no bacterial growth

- MIC E. coli ATCC 25922 [1, 3]: >50 µM
- MIC S. aureus ATCC 25923 [2, 3]: >50 µM
B1: BLF: bovine lactoferrin protein, control (protein, UniProt P24627 20-708, looked up)
Lactotransferrin: APRKNVRWCTISQPEWFKCRRWQWRMKKLGAPSITCVRRAFALECIRAIAEKKADAVTLDGGMVFEAGRDPYKLRPVAAEIYGTKESPQTHYYAVAVVKKGSNFQLDQLQGRKSCHTGLGRSAGWIIPMGILRPYLSWTESLEPLQGAVAKFFSASCVPCIDRQAYPNLCQLCKGEGENQCACSSREPYFGYSGAFKCLQDGAGDVAFVKETTVFENLPEKADRDQYELLCLNNSRAPVDAFKECHLAQVPSHAVVARSVDGKEDLIWKLLSKAQEKFGKNKSRSFQLFGSPPGQRDLLFKDSALGFLRIPSKVDSALYLGSRYLTTLKNLRETAEEVKARYTRVVWCAVGPEEQKKCQQWSQQSGQNVTCATASTTDDCIVLVLKGEADALNLDGGYIYTAGKCGLVPVLAENRKSSKHSSLDCVLRPTEGYLAVAVVKKANEGLTWNSLKDKKSCHTAVDRTAGWNIPMGLIVNQTGSCAFDEFFSQSCAPGADPKSRLCALCAGDDQGLDKCVPNSKEKYYGYTGAFRCLAEDVGDVAFVKNDTVWENTNGESTADWAKNLNREDFRLLCLDGTRKPVTEAQSCHLAVAPNHAVVSRSDRAAHVKQVLLHQQALFGKNGKNCPDKFCLFKSETKNLLFNDNTECLAKLGGRPTYEEYLGTEYVTAIANLKKCSTSPLLEACAFLTR
- MBC E. coli ATCC 25922 [1, 4]: >50 µM
- MBC S. aureus ATCC 25923 [2, 4]: >50 µM
